Ends that are not written are not given here.
T1: Unconjugated peptide 5 (human)
T1 peptide: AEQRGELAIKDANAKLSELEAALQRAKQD

T2: Unconjugated peptide 6 (human)
T2 peptide: AALQRAKQD

T3: Unconjugated peptide 7 (human)
T3 peptide: EAALQRAKQD

T4: Unconjugated peptide 8 (human)
T4 peptide: LEAALQRAKQD

T5: Unconjugated peptide 9 (human)
T5 peptide: ELEAALQRAKQD

T6: Unconjugated peptide 10 (human)
T6 peptide: SELEAALQRAKQD

T7: Unconjugated peptide 11 (human)
T7 peptide: LSELEAALQRAKQD

T8: Unconjugated peptide 12 (human)
T8 peptide: KLSELEAALQRAKQD

T9: Unconjugated peptide 13 (human)
T9 peptide: AKLSELEAALQRAKQD

T10: Unconjugated peptide 14 (human)
T10 peptide: NAKLSELEAALQRAKQD

T11: Unconjugated peptide 15 (human)
T11 peptide: ANAKLSELEAALQRAKQD

T12: Unconjugated peptide 16 (human)
T12 peptide: DANAKLSELEAALQRAKQD

T13: Unconjugated peptide 17 (human)
T13 peptide: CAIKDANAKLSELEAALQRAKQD

T14: Unconjugated peptide 18 (human)
T14 peptide: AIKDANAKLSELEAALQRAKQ

T15: Unconjugated peptide 19 (human)
T15 peptide: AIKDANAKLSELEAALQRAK

T16: Unconjugated peptide 20 (human)
T16 peptide: AIKDANAKLSELEAALQRA

T17: Unconjugated peptide 21 (human)
T17 peptide: AIKDANAKLSELEAALQR

T18: Unconjugated peptide 22 (human)
T18 peptide: AIKDANAKLSELEAALQ

T19: Unconjugated peptide 24 (human)
T19 peptide: AIKDANAKLSELEAA

T20: Unconjugated peptide 25 (human)
T20 peptide: AIKDANAKLSELEA

T21: Unconjugated peptide 26 (human)
T21 peptide: AIKDANAKLSELE

T22: Unconjugated peptide 27 (human)
T22 peptide: AIKDANAKLSEL

T23: Unconjugated peptide 28 (human)
T23 peptide: AIKDANAKLSE

T24: BSA conjugated peptide 3 (human, also: conjugated to BSA via the thiol of the C-terminal Cys)
T24 peptide: AALQRAKQDC(BSA)

T25: BSA conjugated peptide 4 (human, also: conjugated to BSA via the thiol of the C-terminal Cys)
T25 peptide: SELEAALQRAKQDC(BSA)

T26: BSA conjugated peptide 17 (human, BSA conjugated (the added cysteine is printed at the N-terminus))
T26 peptide: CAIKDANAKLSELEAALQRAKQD

T27: BSA conjugated peptide 1 (human, BSA coupled at the SH group of the C-terminal cysteine)
T27 peptide: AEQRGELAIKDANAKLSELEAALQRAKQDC

T28: BSA conjugated peptide 2 (human, BSA coupled at the SH group of the C-terminal cysteine)
T28 peptide: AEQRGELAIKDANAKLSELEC

B1: Murine monoclonal antibody D-A10 (antibody, V domains shown)
VH: EVQLLETGGGLVQPGGSRGLSCEGSGFTFSGFWMSWVRQTPGKTLEWIGDINSDGSAIKYAPSIKDRFTIFRDNDKSTLYLQMSNVRSEDTATYFCIAHYSGGGFAYWGQGTSVTVSS
VL: NIVMTQAAPSVPVTPGESVSISCRSSKSLLYSNGNTYLYWFLQRPGQSPQRLIYYMSNLASGVPDRFSGRGSGTDFTLRISRVEAEDVGVYYCMQSLEYPFTFGGGTKLEIK
notes: Murine IgG from a hybridoma, purified from ascitic fluid on protein A; also called mD-A10 Mab; mD-A10
B2: Unconjugated peptide 1 (peptide)
peptide: T27 peptide

Legend:
Unconjugated peptide 1 = molecular target: B2; assay: ELISA, coated unconjugated peptide
Method: (§1) The CK8 peptides, coupled or not with the bovine serum albumin (BSA) at the SH group of the C-terminal cysteine, were immobilized (0.5 μg/ml or 1 μg/ml respectively) at the bottom of the wells of a 96 well plate overnight at room temperature. Unbound peptides are washed away with purified water supplemented by Tween (Sigma, St Quentin Fallavier, France). The wells are then saturated with a saline phosphate buffer solution (PBS) containing 5% BSA for 2 hours at room temperature (RT). Then the plates are washed away with purified water supplemented by Tween. The Mab binding to the coated peptides is tested at different Mab concentrations following an incubation for 2 hours at RT in PBS (Invitrogen, Villebon sur Yvette, France) supplemented by 1% Bovine Serum Albumin (Sigma, St Quentin Fallavier, France). Unbound Mabs are washed away with purified water supplemented by Tween. […] The absorbance is read at 450 nm and corrected at 630 nm. The specific requirements for the different experiments are detailed below.
(§2) The unconjugated peptides 1, 5 to 28 of human CK8 were immobilized (2 μg/ml) at the bottom of a 96-wells plate. Different Mab concentrations (from 10 μg/mL then diluted at 1/10) were incubated for 2 hours at room temperature alone or with each peptide tested. The optical density values (OD) was read at 450 nm and corrected at 630 nm. The results are shown in FIG. 13A (related to mD-A10) or on FIG. 13B (related to M20).

Unconjugated peptide 5 = molecular target: T1, Unconjugated peptide 5; assay: ELISA, coated unconjugated peptide
Method: as §1, §2

Unconjugated peptide 6 = molecular target: T2, Unconjugated peptide 6; assay: ELISA, coated unconjugated peptide
Method: as §1, §2

Unconjugated peptide 7 = molecular target: T3, Unconjugated peptide 7; assay: ELISA, coated unconjugated peptide
Method: as §1, §2

Unconjugated peptide 8 = molecular target: T4, Unconjugated peptide 8; assay: ELISA, coated unconjugated peptide
Method: as §1, §2

Unconjugated peptide 9 = molecular target: T5, Unconjugated peptide 9; assay: ELISA, coated unconjugated peptide
Method: as §1, §2

Unconjugated peptide 10 = molecular target: T6, Unconjugated peptide 10; assay: ELISA, coated unconjugated peptide
Method: as §1, §2

Unconjugated peptide 11 = molecular target: T7, Unconjugated peptide 11; assay: ELISA, coated unconjugated peptide
Method: as §1, §2

Unconjugated peptide 12 = molecular target: T8, Unconjugated peptide 12; assay: ELISA, coated unconjugated peptide
Method: as §1, §2

Unconjugated peptide 13 = molecular target: T9, Unconjugated peptide 13; assay: ELISA, coated unconjugated peptide
Method: as §1, §2

Unconjugated peptide 14 = molecular target: T10, Unconjugated peptide 14; assay: ELISA, coated unconjugated peptide
Method: as §1, §2

Unconjugated peptide 15 = molecular target: T11, Unconjugated peptide 15; assay: ELISA, coated unconjugated peptide
Method: as §1, §2

Unconjugated peptide 16 = molecular target: T12, Unconjugated peptide 16; assay: ELISA, coated unconjugated peptide
Method: as §1, §2

Unconjugated peptide 17 = molecular target: T13, Unconjugated peptide 17; assay: ELISA, coated unconjugated peptide
Method: as §1, §2

Unconjugated peptide 18 = molecular target: T14, Unconjugated peptide 18; assay: ELISA, coated unconjugated peptide
Method: as §1, §2

Unconjugated peptide 19 = molecular target: T15, Unconjugated peptide 19; assay: ELISA, coated unconjugated peptide
Method: as §1, §2

Unconjugated peptide 20 = molecular target: T16, Unconjugated peptide 20; assay: ELISA, coated unconjugated peptide
Method: as §1, §2

Unconjugated peptide 21 = molecular target: T17, Unconjugated peptide 21; assay: ELISA, coated unconjugated peptide
Method: as §1, §2

Unconjugated peptide 22 = molecular target: T18, Unconjugated peptide 22; assay: ELISA, coated unconjugated peptide
Method: as §1, §2

Unconjugated peptide 23 = Unconjugated peptide 23 (human); assay: ELISA, coated unconjugated peptide
Method: as §1, §2

Unconjugated peptide 24 = molecular target: T19, Unconjugated peptide 24; assay: ELISA, coated unconjugated peptide
Method: as §1, §2

Unconjugated peptide 25 = molecular target: T20, Unconjugated peptide 25; assay: ELISA, coated unconjugated peptide
Method: as §1, §2

Unconjugated peptide 26 = molecular target: T21, Unconjugated peptide 26; assay: ELISA, coated unconjugated peptide
Method: as §1, §2

Unconjugated peptide 27 = molecular target: T22, Unconjugated peptide 27; assay: ELISA, coated unconjugated peptide
Method: as §1, §2

Unconjugated peptide 28 = molecular target: T23, Unconjugated peptide 28; assay: ELISA, coated unconjugated peptide
Method: as §1, §2

BSA conjugated peptide 3 = molecular target: T24, BSA conjugated peptide 3; assay: ELISA, coated BSA conjugated peptide
Method: as §1
(§3) Different Mab concentrations (from 10 μg/mL then diluted at 1/10) were incubated for 2 hours at room temperature with either the peptide 1, peptide 2, peptide 3, peptide 4 or peptide 17. The optical density values (OD) was read at 450 nm and corrected at 630 nm.

BSA conjugated peptide 4 = molecular target: T25, BSA conjugated peptide 4; assay: ELISA, coated BSA conjugated peptide
Method: as §1, §3

[1] = molecular target: T26, BSA conjugated peptide 17; assay: ELISA, coated BSA conjugated peptide
Method: as §1, §3

BSA conjugated peptide 1 = molecular target: T27, BSA conjugated peptide 1; assay: ELISA, coated BSA conjugated peptide
Method: as §1, §3

BSA conjugated peptide 2 = molecular target: T28, BSA conjugated peptide 2; assay: ELISA, coated BSA conjugated peptide
Method: as §1, §3

[2] = molecular target: B1; assay: flow cytometry competition, free peptide against biotinylated antibody on Isreco-1 cells
Method: 2.10⁵ Isreco-1 cells per 96-wells were incubated with a biotinylated antibody anti-CK8 (12.5 μg/mL) with or without peptide 1 or peptide 2 tested at different concentrations and incubated at 4° C. for 30 min. Unbound antibody was washed away with PBS (Invitrogen, Villebon sur Yvette, France) supplemented by 1% Bovine Serum Albumin (Sigma, St Quentin Fallavier, France). Subsequently, cells were centrifuged (5 min at 400 g) and bound antibody was detected with Phycoerythrin conjugated Streptavidin (Interchim, Montlucon, France) at 4° C. for 30 min. Detection reagent was washed away and cells were centrifuged (5 min at 400 g) and suspended in 300 μL PBS. Bound detection antibody was quantified on a FACS CAN (BD Biosciences, Rungis, France), (FL2 channel, 2 000 events per acquisition). During the experiment, the respective isotype controls were included to exclude any unspecific binding events. The presence of peptide 1 inhibits cell labelling with the mD-D6 or mD-A10 Mab without any significant impact on M20 Mab cellular staining.

Binder: B1
binding result (Unconjugated peptide 1): binds
binding result (Unconjugated peptide 5): binds
binding result (Unconjugated peptide 6): no binding (tested: from 10 ug/mL then diluted at 1/10)
binding result (Unconjugated peptide 7): no binding (tested: from 10 ug/mL then diluted at 1/10)
binding result (Unconjugated peptide 8): no binding (tested: from 10 ug/mL then diluted at 1/10)
binding result (Unconjugated peptide 9): no binding (tested: from 10 ug/mL then diluted at 1/10)
binding result (Unconjugated peptide 10): no binding (tested: from 10 ug/mL then diluted at 1/10)
binding result (Unconjugated peptide 11): binds
binding result (Unconjugated peptide 12): binds
binding result (Unconjugated peptide 13): binds
binding result (Unconjugated peptide 14): binds
binding result (Unconjugated peptide 15): binds
binding result (Unconjugated peptide 16): binds
binding result (Unconjugated peptide 17): binds
binding result (Unconjugated peptide 18): binds
binding result (Unconjugated peptide 19): binds
binding result (Unconjugated peptide 20): binds
binding result (Unconjugated peptide 21): binds
binding result (Unconjugated peptide 22): binds
binding result (Unconjugated peptide 23): binds
binding result (Unconjugated peptide 24): no binding (tested: from 10 ug/mL then diluted at 1/10)
binding result (Unconjugated peptide 25): no binding (tested: from 10 ug/mL then diluted at 1/10)
binding result (Unconjugated peptide 26): no binding (tested: from 10 ug/mL then diluted at 1/10)
binding result (Unconjugated peptide 27): no binding (tested: from 10 ug/mL then diluted at 1/10)
binding result (Unconjugated peptide 28): no binding (tested: from 10 ug/mL then diluted at 1/10)
binding result (BSA conjugated peptide 3): no binding (tested: from 10 ug/mL then diluted at 1/10)
binding result (BSA conjugated peptide 4): binds
binding result [1]: binds
binding result (BSA conjugated peptide 1): binds
binding result (BSA conjugated peptide 2): no binding (tested: from 10 ug/mL then diluted at 1/10)

Binder: B2
binding result [2]: binds

Reference: patent publication US20180237508A1 (INTERNATIONA DRUG DEVELOPMENT BIOTECH, published 2018)
